Measured values: patent US11130783B2, “CD40 targeted peptides and uses thereof” (Regents of the University of Minnesota, priority 2018, dated 2021)
Entries after “also recorded” stand apart in the source; their conditions may differ.

What was measured:
recombinant human CD40 = molecular target: T1, recombinant human CD40 (Homo sapiens, UniProt P25942); test: ELISA for specificity of peptide binding to CD40; conditions: for affinity to bind to CD40 compared to the control Peptide 1: summary of the study; for binding affinity to CD40 by ELISA: FLAG-tagged rhsCD40 1 μg/ml, optical density at 450 nm
T1 construct: probed with FLAG-tagged rhsCD40 (1 μg/ml; Alexis); purchased Alexis
Experimental: Binding of the identified peptides to CD40 was analyzed by ELISA. Briefly, plates were coated with […] and then incubated with identified peptides and detected using Flag-tagged rhsCD40.
In order to confirm the specificity of the peptides to interfere with CD40:CD154 interaction, the specificity of peptides 1-7 as listed in table 1 to bind to human […] by ELISA was tested. Briefly, 96 well ELISA (Nunc Immunolon) plates were coated with the peptides in carbonate buffer. The wells are washed and probed with FLAG-tagged rhsCD40 (1 μg/ml; Alexis) and developed with HRP conjugated rabbit anti-FLAG antibody. The plates were washed and the enzymatic activity was determined using 3,3′,5,5′-tetramethyl-benzidine substrate for 15 minutes and the reaction was stopped by the addition of 2 M H2SO4, and optical density was measured at 450 nm, with the correction wavelength set at 620 nm.

CD4, CD8 and CD20 cells = test: One-way CFSE mixed lymphocyte reaction (MLR), T and B cell proliferation; assay type: cell-based, Rhesus macaques; conditions: peptides at 30 μM, 6 days, CFSE-low cells, PBMC from 5 RM
Experimental: The ability of the CD40 targeting peptides to block CD40-CD40L signaling and inhibit T and B cell proliferation was assessed in a one-way CFSE-MLR. Each of the FIGS. 3A-3E show results of CFSE-MLR performed on PBMC obtained from a different Rhesus monkey. […] The levels of T cell and B cell proliferation was 35-46% in all the 5 animals and for sake clarity was capped at 25% in the figure for better visualization.
In order to determine the functional effect of co-stimulation blockade with peptides targeting CD40, one-way mixed lymphocyte reactions (MLR) was performed. CFSE-labeled PBMC from 5 different RM were stimulated with irradiated PBMC for 6 days. Stimulation with PHA was used as positive control. […] The cells were incubated in the presence of peptides at 30 μM. Following stimulation, PBMC were stained with antibodies specific for CD4, CD8 and CD20 and proliferating cells were quantitated by determining the frequency of CFSE-low CD4, CD8 and CD20 cells. Stained cells were acquired on a 3-laser BD Canto II instrument (BD Bioscience). A minimum of 200,000 events were acquired with FACSDIVA 6.1.3. FACS analysis was performed with FlowJo Version 10 software.

B cells = test: Peptide blocking of B cell activation by recombinant hCD40L (MHC class II expression); assay type: cell-based, Rhesus macaques; conditions: peptides at 30 μM, pre-incubation then recombinant hCD40L
Experimental: The ability of the newly identified peptides to block B cell activation by CD40L was analyzed in a peptide blocking study. Briefly, B cells were pre-incubated with newly identified peptides for 30 minutes before stimulation with rhCD40L. Activation of the B cells was analyzed by measuring the expression levels of MHC class II molecules on the cell surface by flow cytometry.
The ability of CD40-binding peptides 1-7 as listed in Table 1 to block B cell activation was assessed by analyzing the expression of MHC class II molecules on the B cell when subsequently incubated in the presence of recombinant hCD40L. Briefly, B cells were purified from 3 RM PBMC by magnetic sorting. B cells were incubated with peptides at 30 μM for 15 minutes at 37° C., then activated for 30 minutes with recombinant hCD40L, and then analyzed for expression of MHC class II by staining the cells with specific antibody. Stained cells were acquired on a 3-laser BD Canto II instrument (BD Bioscience). A minimum of 200,000 events were acquired with FACSDIVA 6.1.3. FACS analysis was performed with FlowJo Version 10 software.

[1] = molecular target: T2, CD40 on mononuclear cells (Macaca mulatta, UniProt A0ACM8QRX8); test: Binding of fluorochrome tagged CD40 targeting peptides to PBMC by flow cytometry; parameters: species or system Rhesus macaques; conditions: 5 μM fluorochrome tagged peptide, 30 minutes at 4° C.
T2 construct: peripheral blood mononuclear cells (PBMC) purified from 2 Rhesus macaques (RM); endogenous in cells; host or cells: PBMC from Rhesus macaques
Experimental: Binding of the CD40 targeting peptides was analyzed by incubating 5 μM of various fluorochrome tagged CD40 interacting peptides with PBMC from rhesus monkeys for 30 minutes at 4° C. and analyzed by flow cytometry.
In order to screen the ability of the cyclic peptides to bind to CD40, peripheral blood mononuclear cells (PBMC) purified from 2 Rhesus macaques (RM) were incubated with 5 μM of fluorochrome tagged CD40 interacting peptides, Peptide 1-7 listed in Table 1 for 30 minutes at 4° C. The cells were washed 3× in PBS and analyzed by flow cytometry. Stained cells were acquired on a 3-laser BD Canto II instrument (BD Bioscience). A minimum of 200,000 events were acquired with FACSDIVA 6.1.3. Mean fluorescence intensity of the peptide binding to the cells were determined using FlowJo 10.1. software (Tree Star; Ashland, OR, USA). […] 1-7 bind to the PBMC but at various intensities, confirming the ability of the synthetic peptides to bind to CD40 on mononuclear cells.

T1 sequence (P25942 21-193 limits assumed): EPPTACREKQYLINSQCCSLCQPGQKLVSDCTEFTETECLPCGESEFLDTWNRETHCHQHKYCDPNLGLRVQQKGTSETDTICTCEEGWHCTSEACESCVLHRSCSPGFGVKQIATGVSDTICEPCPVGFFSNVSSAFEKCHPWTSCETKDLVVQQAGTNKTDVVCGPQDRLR
T2 sequence (A0ACM8QRX8 21-278): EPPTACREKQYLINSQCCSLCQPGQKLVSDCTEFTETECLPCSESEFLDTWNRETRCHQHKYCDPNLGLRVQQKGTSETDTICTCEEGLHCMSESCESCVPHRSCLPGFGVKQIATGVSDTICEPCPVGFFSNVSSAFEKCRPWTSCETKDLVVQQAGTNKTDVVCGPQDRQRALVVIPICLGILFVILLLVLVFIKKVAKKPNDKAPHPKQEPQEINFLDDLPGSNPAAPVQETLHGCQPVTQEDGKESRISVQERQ

Row | Sequence | affinity to bind to CD40 compared to the control Peptide 1 (recombinant human CD40) | binding affinity to CD40 by ELISA (recombinant human CD40) | binding to PBMC / mononuclear cells (mean fluorescence intensity) [1] | suppression of T and B cell (CD4, CD8, CD20) proliferation (CD4, CD8 and CD20 cells) | ability to block B cell activation (MHC class II expression) (B cells) | suppression of T and B cell (CD4, CD8, CD20) proliferation (CD4, CD8 and CD20 cells; listed as Peptide#2) | suppression of T and B cell (CD4, CD8, CD20) proliferation (CD4, CD8 and CD20 cells; listed as Peptide #3)
1 | VLNWADKAYFTMSQN [Peptide 4] | – | lowest binding affinity | – | – | – | – | –
2 | VLQWAEKGYYTMSNN [Peptide 1, reference compound] | – | high binding affinity | high binding affinity | – | – | – | –
3 | VLQWAERGFYTTSNN [Peptide 2] | higher affinity | specific binding to human CD40 | – | higher efficacy compared to the other peptides; also recorded: complete abrogation of T and B cell proliferation | complete abrogation of T and B cell proliferation as well as activation of B cells | inhibited T and B cell proliferation significantly better than the CD40 targeting peptide identified earlier | –
4 | VVQWAEKGFFTMSNN [Peptide 3] | higher affinity | specific binding to human CD40 | high binding affinity | higher efficacy compared to the other peptides; also recorded: complete abrogation of T and B cell proliferation | complete abrogation of T and B cell proliferation as well as activation of B cells | – | inhibited T and B cell proliferation significantly better than the CD40 targeting peptide identified earlier

Continued, in another order:

Row | affinity to bind to CD40 compared to the control Peptide 1 (recombinant human CD40) | binding affinity to CD40 by ELISA (recombinant human CD40) | binding to PBMC / mononuclear cells (mean fluorescence intensity) [1] | Sequence | suppression of T and B cell (CD4, CD8, CD20) proliferation (CD4, CD8 and CD20 cells) | ability to block B cell activation (MHC class II expression) (B cells) | suppression of T and B cell (CD4, CD8, CD20) proliferation (CD4, CD8 and CD20 cells; listed as Peptide#2) | suppression of T and B cell (CD4, CD8, CD20) proliferation (CD4, CD8 and CD20 cells; listed as Peptide #3)
5 | higher affinity | – | – | LVNWADKAFYTTSNN [Peptide 5] | complete abrogation of T and B cell proliferation | complete abrogation of T and B cell proliferation as well as activation of B cells | – | –
6 | – | specific binding to human CD40 | least binding affinity | VVQWAEKGYYTMSQN [Peptide 7] | – | – | – | –
